US20220033501A1 (SHANGHAI PHARMAEXPLORER, published 2022)

T1: monkey TIM-3 extracellular domain protein with hFc tag (cTIM-3-hFc) (monkey)
T1 construct: not shown: human IgG Fc fragment (hFc) of the pCpC vector
T1 chain: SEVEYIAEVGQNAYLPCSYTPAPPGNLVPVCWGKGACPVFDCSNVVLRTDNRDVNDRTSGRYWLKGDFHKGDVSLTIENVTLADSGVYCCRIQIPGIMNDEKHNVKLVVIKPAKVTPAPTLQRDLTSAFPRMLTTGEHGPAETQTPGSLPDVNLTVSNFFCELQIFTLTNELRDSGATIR

T2: human TIM-3 extracellular domain protein with hFc tag (hTIM-3-hFc) (human, UniProt Q8TDQ0 22-200)
T2 construct: not shown: human IgG Fc fragment (hFc) of the pCpC vector
T2 sequence: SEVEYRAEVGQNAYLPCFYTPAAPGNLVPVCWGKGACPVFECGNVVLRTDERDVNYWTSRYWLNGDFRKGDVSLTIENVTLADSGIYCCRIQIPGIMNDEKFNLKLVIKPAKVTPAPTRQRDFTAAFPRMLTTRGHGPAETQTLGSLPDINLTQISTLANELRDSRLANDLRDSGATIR

T3: monkey TIM-3 on CHOK1 stable cell line (CHOK1-cTIM-3) (monkey)
T3 chain: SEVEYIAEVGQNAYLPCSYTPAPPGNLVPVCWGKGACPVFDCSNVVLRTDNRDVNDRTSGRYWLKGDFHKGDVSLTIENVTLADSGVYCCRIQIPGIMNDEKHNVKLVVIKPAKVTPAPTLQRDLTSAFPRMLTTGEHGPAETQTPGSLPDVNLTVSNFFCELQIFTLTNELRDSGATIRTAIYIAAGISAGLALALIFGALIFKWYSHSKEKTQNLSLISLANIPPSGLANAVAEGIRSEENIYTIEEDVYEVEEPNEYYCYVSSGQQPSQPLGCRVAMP

T4: murine TIM-3 extracellular domain protein with hFc tag (mTIM-3-hFc) (mouse, UniProt Q8VIM0 29-191)
T4 construct: also called mouse TIM-3 extracellular domain protein; not shown: human IgG Fc fragment (hFc) of the pCpC vector
T4 chain: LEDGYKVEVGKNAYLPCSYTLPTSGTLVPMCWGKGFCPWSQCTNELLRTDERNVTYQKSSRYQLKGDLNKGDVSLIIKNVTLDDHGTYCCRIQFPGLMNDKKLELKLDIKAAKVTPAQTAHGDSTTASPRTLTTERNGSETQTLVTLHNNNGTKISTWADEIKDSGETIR

T5: monkey TIM-3 protein with hFc tag (cTIM-3-hFc protein) (monkey; human)
T5 construct: Made in HEK293 cells; also called monkey TIM-3 extracellular domain protein; not shown: human IgG Fc fragment (hFc) of the pCpC vector
T5 chain: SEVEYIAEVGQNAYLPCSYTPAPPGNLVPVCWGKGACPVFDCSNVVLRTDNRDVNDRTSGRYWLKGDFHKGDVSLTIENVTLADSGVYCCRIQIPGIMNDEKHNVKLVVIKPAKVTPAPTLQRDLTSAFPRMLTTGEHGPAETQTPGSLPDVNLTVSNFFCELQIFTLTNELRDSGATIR

T6: murine TIM-3 protein with hFc tag (mTIM-3-hFc protein) (mouse; human, UniProt Q8VIM0 29-191)
T6 construct: Made in HEK293 cells; also called mouse TIM-3 extracellular domain protein; not shown: human IgG Fc fragment (hFc) of the pCpC vector
T6 chain: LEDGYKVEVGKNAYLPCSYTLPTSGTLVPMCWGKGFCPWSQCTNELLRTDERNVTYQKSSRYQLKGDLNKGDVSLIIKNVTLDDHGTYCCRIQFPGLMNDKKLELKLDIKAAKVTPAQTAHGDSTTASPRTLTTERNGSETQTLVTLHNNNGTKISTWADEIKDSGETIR


Legend:
[1] = target: T1, monkey TIM-3 extracellular domain …; experiment: ELISA, coated monkey TIM-3 ECD protein, 0.0067 nM antibody
[2] = target: T1, monkey TIM-3 extracellular domain …; experiment: ELISA, coated monkey TIM-3 ECD protein, 66.667 nM antibody
[3] = target: T2, human TIM-3 extracellular domain …; experiment: ELISA, coated human TIM-3 ECD protein, 66.667 nM antibody
[4] = target: T3, monkey TIM-3 on CHOK1 stable cell line …; experiment: FACS, CHOK1-cTIM-3 cells, 0.32 nM antibody
[5] = target: T3, monkey TIM-3 on CHOK1 stable cell line …; experiment: FACS, CHOK1-cTIM-3 cells, 8 nM antibody
[6] = target: T4, murine TIM-3 extracellular domain …; experiment: ELISA, coated mouse TIM-3 ECD protein, 6.6667 nM antibody
[7] = target: T1, monkey TIM-3 extracellular domain …; experiment: ELISA, coated monkey TIM-3 ECD protein, 0.0001 nM antibody
[8] = target: T4, murine TIM-3 extracellular domain …; experiment: ELISA, coated mouse TIM-3 ECD protein, 66.667 nM antibody
[9] = target: T5, monkey TIM-3 protein with hFc tag …; experiment: ELISA, coated cTIM-3-hFc; antibody 0.0667 nM
Text: (§1) The amino acid sequence 22-200 of the extracellular domain of the human TIM-3 protein described in the step of Example 1 (as shown in SEQ ID NO. 71 in the sequence listing) was cloned into a pCpC vector having a human IgG Fc fragment (hFc), and transfected into HEK293 cells. The cell culture medium was collected, and purified to obtain the human TIM-3 protein with hFc tag (herein referred to as hTIM-3-hFc protein). The amino acid sequence 22-201 of the extracellular domain of the monkey TIM-3 protein (as shown in SEQ ID NO. 72 in the sequence listing) was cloned into a pCpC vector having a human IgG Fc fragment (hFc), and transfected into HEK293 cells. The cell culture medium was collected, and purified to obtain the monkey TIM-3 protein with hFc tag (herein referred to as cTIM-3-hFc protein). […] The cell culture medium was collected, and purified to obtain the murine TIM-3 protein with hFc tag (herein referred to as mTIM-3-hFc protein). Purified human, monkey, and mouse TIM-3 extracellular domain proteins (hTIM-3-hFc, cTIM-3-hFc, and mTIM-3-hFc) were diluted with PBS to a final concentration of 1.0 μg/ml and then added to a 96-well ELISA plate with 100 μl per well. The plate was sealed with plastic film and incubated overnight at 4° C. The plate was washed 4 times with the plate washing solution (PBS+0.01% Tween20) on the next day, and added with the blocking solution (PBS+0.01% Tween20+1% BSA) and sealed at room temperature for 1-2 hours. The blocking solution was poured out. 50-100 μl of the antibody sample to be tested was added to each well. The plate was incubated at 37° C. for 1-2 hours, and washed 2-3 times with plate washing solution (PBS+0. 01% Tween20). HRP (horseradish peroxidase) labeled secondary antibody was added. The plate was incubated at 37° C. for 1-2 hours, and washed 2-3 times with plate washing solution (PBS+0. 01% Tween20). […] of TMB substrate was added to each well. After incubated at room temperature for 15-30 minutes, the plate was added with […] stop solution (1.0N HCl) to each well. An ELISA plate reader (TiterMax 384plus, Molecular Device) was used to read the A450 nm value.

[10] = target: T6, murine TIM-3 protein with hFc tag …; experiment: ELISA, coated mTIM-3-hFc; antibody 66.667 nM
Text: as §1

[11] = target: T5, monkey TIM-3 protein with hFc tag …; experiment: ELISA, coated cTIM-3-hFc; antibody 0.6667 nM
Text: as §1

Row | OD450 [1] | OD450 [2] | OD450 [3] | Mean fluorescence intensity [4] | Mean fluorescence intensity [5] | OD450 [6] | OD450 [7] | OD450 [8] | OD450 [9] | OD450 [10] | OD450 [11] | Binder
1 | 0.32 | 3.42 | 3.06 | 80.6 | 259 | 0.54 | 0.17 | 1.55 | – | – | – | 57F4E5 fully human TIM-3 antibody (human IgG4, kappa) (antibody, V domains shown) VH: EVQLVESGGGLVQPGGSLRLSCAASGFTFSSYWMSWVRQAPGKGLEWVANIKQDGSEKYYVDSVKGRFTISRDSAKNSLYLQMNSLRAEDTAMYFCARDSNFFDYWGQGTLVTVSS VL: ETVMTQSPATLSVSPGERATLSCRASQSVSSNLAWYQRKPGQAPRLLIYFSSTRATGIPARFSGSGSGTEFTLTISSLQSEDFAVYYCQQYNNWPLTFGGGTKVEIK
2 | – | – | – | – | – | – | – | – | 1.98 | 0.9 | 3.41 | 39E5H1 (TIM-3 antibody purified from hybridoma, chimeric antibody of Example 2) (antibody, V domains shown, From hybridoma of Harbour H2L2 transgenic mice: human variable regions, rat constant regions) VH: EVQLVESGGGLVQPGGSLRLSCAASGFTFSSYWMSWVRQAPGKGLEWVANIKRGGSERYYVDSVKGRFTISGDNAKNSVYLQMNSLRAEDTAVYYCARGSNWFDPWGQGTLVTVSS VL: ETVMTQSPAILSVSPGERATLSCRASQSVYSNLAWYQQKLGQAPRLLIYDASTRATGIPARFSGSGSGTEFTLTISSLQSEDFAVYYCQQYNNWPITFGQGTRLEIK
3 | – | – | – | – | – | – | – | – | 0.74 | 0.85 | 1.89 | 18D2H2 (TIM-3 antibody purified from hybridoma, chimeric antibody of Example 2) (antibody, V domains shown, From hybridoma of Harbour H2L2 transgenic mice: human variable regions, rat constant regions) VH: EVQLVESGGDLVQPGGSLRLSCAASGFTFSTYWMTWVRQAPGRGLEWVANIKQDGSAKYYVDSVKGRFTLSRDDAKNSLYLQMNSLRAEDTAVYYCARGSNWFDYWGQGTLVTVSS VL: ETVMTQSPATLSVSPGERATLSCRANQNVYSNLAWYQQKPGQAPRLLIYDASTRATGFPARFSGSGSGTEFTLTISSLQSEDFAVYYCQQYNNWPLTFGGGTKVEIK
4 | 0.3 | 3.11 | 2.77 | 134 | 401 | 0.36 | 0.14 | 0.94 | – | – | – | 134H3G6 fully human TIM-3 antibody (human IgG4, kappa) (antibody, V domains shown) VH: EVQLVESGGGLVQPGGSLRLSCAASGFTFSNSWMTWVRQAPGKGLEWVANIKQAGTEKYYVDSVKGRFTISRDNAKNSLYLQMNSLRAEDTAVYYCNSGSNYFDYWGQGTLVTVSS VL: EIVMTQSPATLSVSPGERATLSCRARQNFYSNLAWYQQKPGQAPRLLIYGASTRATGIPARFSGSGSGTEFTLTISSLQSEDFAVYYCQQYNNWPLTFGGGTKVEIK
5 | – | – | – | – | – | – | – | – | 0.64 | 0.7 | 1.22 | 134H3G6 (TIM-3 antibody purified from hybridoma, chimeric antibody of Example 2) (antibody, V domains shown, From hybridoma of Harbour H2L2 transgenic mice: human variable regions, rat constant regions) VH: EVQLVESGGGLVQPGGSLRLSCAASGFTFSNSWMTWVRQAPGKGLEWVANIKQAGTEKYYVDSVKGRFTISRDNAKNSLYLQMNSLRAEDTAVYYCNSGSNYFDYWGQGTLVTVSS VL: EIVMTQSPATLSVSPGERATLSCRARQNFYSNLAWYQQKPGQAPRLLIYGASTRATGIPARFSGSGSGTEFTLTISSLQSEDFAVYYCQQYNNWPLTFGGGTKVEIK
6 | – | – | – | – | – | – | – | – | 2.68 | 0.74 | 3.45 | 57F4E5 (TIM-3 antibody purified from hybridoma, chimeric antibody of Example 2) (antibody, V domains shown, From hybridoma of Harbour H2L2 transgenic mice: human variable regions, rat constant regions) VH: EVQLVESGGGLVQPGGSLRLSCAASGFTFSSYWMSWVRQAPGKGLEWVANIKQDGSEKYYVDSVKGRFTISRDSAKNSLYLQMNSLRAEDTAMYFCARDSNFFDYWGQGTLVTVSS VL: ETVMTQSPATLSVSPGERATLSCRASQSVSSNLAWYQRKPGQAPRLLIYFSSTRATGIPARFSGSGSGTEFTLTISSLQSEDFAVYYCQQYNNWPLTFGGGTKVEIK
7 | – | – | – | – | – | – | – | – | 0.7 | 0.66 | 1.35 | 7A4F10 (TIM-3 antibody purified from hybridoma, chimeric antibody of Example 2) (antibody, V domains shown, From hybridoma of Harbour H2L2 transgenic mice: human variable regions, rat constant regions) VH: EVQLLESGGGLVQPGGSLRLSCAASGFTFRTHLISWVRQAPGKGLEWVAAITGSGGSTYYADSVKGRFIISRDNSKNTLFLQMNSLRAEDTAVYYCAKDGGSGSYDDFWGQGTLVTVSS VL: ETVLTQSPVTLSLSPGERATLSCRASQSVGSYLAWYQQKPGQAPRLLIYDASNRATGIPARFSGSGSGTDFTLTISSLEPEDFAVYYCQQRSNWPPTFGQGTKVEIK
8 | 0.33 | 3.24 | 3.08 | 92.5 | 362 | 0.38 | 0.13 | 1.08 | – | – | – | 215A8F2 fully human TIM-3 antibody (human IgG4, kappa) (antibody, V domains shown) VH: QVQLQQWGAGLLKPSETLSLTCTVYGGSFSGYYWNWIRQPPGKGLEWLGEINHSGSTNYNPSLKRRVTISVDTSKNQFSLKLSSVTAADTAVYYCARVYYYGPFDFWGQGTLVTVSS VL: not shown
9 | – | – | – | – | – | – | – | – | 1.5 | 0.77 | 3.26 | 215A8F2 (TIM-3 antibody purified from hybridoma, chimeric antibody of Example 2) (antibody, V domains shown, From hybridoma of Harbour H2L2 transgenic mice: human variable regions, rat constant regions) VH: QVQLQQWGAGLLKPSETLSLTCTVYGGSFSGYYWNWIRQPPGKGLEWLGEINHSGSTNYNPSLKRRVTISVDTSKNQFSLKLSSVTAADTAVYYCARVYYYGPFDFWGQGTLVTVSS VL: not shown
10 | – | – | – | – | – | – | – | – | 1.92 | 1.1 | 3.44 | 34B6D8 (TIM-3 antibody purified from hybridoma, chimeric antibody of Example 2) (antibody, V domains shown, From hybridoma of Harbour H2L2 transgenic mice: human variable regions, rat constant regions) VH: EVQLVESGGGLVQPGGSLRLSCAASGFTFSTYWMTWVRQAPGKRLEWVANIKQGGGDKYYVDSVKGRFTISTDNAKNSLYLQMNSLRAEDTAVYYCARGSNWFDPWGQGTLVTVSS VL: EIVMTQSPATLSMSPGERATLSCRASQSVYDNLAWYQQKPGQAPRLLIYGASTRATGIPARFSGSGSGTEFTLTISSLQSEDFALYYCQQYTHWPITFGQGTRLEIK
